Source: patent publication US20070054846A1, “Bcl-w structure and uses therefor” (priority 2002, published 2007)

Tests used:
Assay type in all cases: binding
full-length Bcl-xL [1] = target: T1, full-length Bcl-xL (Homo sapiens, UniProt Q07817); assay: Co-immunoprecipitation from cell extracts; details: FLAG-tagged full-length Bcl-xL
T1 construct: FLAG-tagged full-length Bcl-xL or a C-terminally truncated mutant (ΔC24); expressed in transfected cells
Source text: (§1) Bcl-xL and Bcl-2 also contain hydrophobic residues at their C-termini, similar to those found in Bcl-w (FIG. 1C), yet the low level of sequence identity following α8 and the absence of 3D-structural information, makes prediction of their conformation difficult. Since BCl-xL, like Bcl-w, is only partially membrane-bound in healthy cells (Hsu et al., 1997), we compared the ability of FLAG-tagged full-length Bcl-xL or a C-terminally truncated mutant (ΔC24) to bind to BimL or the […]L94A B3 mutant.
Cell culture, stable transfections into FDC-P1, transient transfections into 293T human embryonic kidney cells, metabolic labelling with ^35S-methionine/cysteine (NEN) and co-immunoprecipitation have been previously described (O'Connor et al., 1998, Moriishi et al., 1999; Huang et al., 1998; Wilson-Annan et al., 2003). Briefly, mammalian pEF-based expression vectors for Bcl-w, BCl-xL, Bim, Bmf, Bad and Bik (O'Connor et al., 1998, Huang et al., 1998; Moriishi et al., 1999; Wilson-Annan et al., 2003) were transiently transfected using liposome mediated transfection (Lipofectamine™; Invitrogen). […] The immunoprecipitates were resolved by SDS-PAGE (Novex), transferred onto nitrocellulose membranes (APB) and the proteins detected by fluorography (Amplify; APB).

full-length Bcl-xL [2] = target: T1, full-length Bcl-xL; assay: GST pull-down
Source text: as §1
Direct interactions between Bcl-w and BimL were monitored using GST pull-down experiments. These were performed in 100 μl of PBS (phosphate buffered saline pH 7.3) containing 2 mM DTT. Typically excess soluble proteins were added to equivalent amounts of resin bound proteins. After incubation at room temperature for 30 minutes the resin was pelleted and then washed twice with 200 μl of PBS containing 0.2% Tween 20. After removal of the second wash 10 μl of SDS-PAGE sample buffer was added to each sample and the samples were boiled then loaded onto 16% polyacrylamide gels that were electrophoresed and stained with Coomassie Blue R250. The staining intensity of the bound soluble protein indicated the strength of the interaction between the two proteins.

Bcl-xLΔC24 = target: T2, Bcl-xLΔC24 (Homo sapiens, UniProt Q07817); assay: Co-immunoprecipitation / GST pull-down; details: C-terminally truncated Bcl-xL (ΔC24)
T2 construct: expressed in transfected cells
Source text: as §1
Direct interactions between Bcl-w and BimL were monitored using GST pull-down experiments. These were performed in 100 μl of PBS (phosphate buffered saline pH 7.3) containing 2 mM DTT. Typically excess soluble proteins were added to equivalent amounts of resin bound proteins. After incubation at room temperature for 30 minutes the resin was pelleted and then washed twice with 200 μl of PBS containing 0.2% Tween 20. […]
Cell culture, stable transfections into FDC-P1, transient transfections into 293T human embryonic kidney cells, metabolic labelling with ^35S-methionine/cysteine (NEN) and co-immunoprecipitation have been previously described (O'Connor et al., 1998, Moriishi et al., 1999; Huang et al., 1998; Wilson-Annan et al., 2003). […] The immunoprecipitates were resolved by SDS-PAGE (Novex), transferred onto nitrocellulose membranes (APB) and the proteins detected by fluorography (Amplify; APB).

T1 sequence (Q07817 whole entry, species assumed, the tested form may be a part): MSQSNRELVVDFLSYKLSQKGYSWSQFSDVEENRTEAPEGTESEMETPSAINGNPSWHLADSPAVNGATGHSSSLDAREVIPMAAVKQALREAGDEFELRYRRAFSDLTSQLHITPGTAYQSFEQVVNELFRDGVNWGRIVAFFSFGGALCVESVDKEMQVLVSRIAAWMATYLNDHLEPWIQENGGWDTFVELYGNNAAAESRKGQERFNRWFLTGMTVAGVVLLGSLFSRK
T2 sequence (Q07817 1-209 limits assumed, stated change not applied): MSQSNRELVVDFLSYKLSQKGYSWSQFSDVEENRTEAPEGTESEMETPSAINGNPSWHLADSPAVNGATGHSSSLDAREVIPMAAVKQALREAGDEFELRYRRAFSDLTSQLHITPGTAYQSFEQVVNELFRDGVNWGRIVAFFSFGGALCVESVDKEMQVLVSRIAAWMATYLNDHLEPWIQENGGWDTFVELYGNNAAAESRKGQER

B1: BimL: Bim isoform BimL, BH3-only protein (protein)
chain: MAKQPSDVSSECDREGGQLQPAERPPQLRPGAPTSLQTEPQDRSPAPMSCDKSTQTPSPPCQAFNHYLSAMASIRQSQEEPEDLRPEIRIAQELRRIGDEFNETYTRRVFANDYREAEDHPQMVILQLLRFIFRLVWRRH
modifications: left off: small tags and cut ends
notes: Bim isoform BimL, BH3-only protein
Question: For B1, which “association in cell extracts” value (full-length Bcl-xL [1]) is on record?
Answer: The value was “associates only with wild-type BimL”.

Question: And the “association in GST pull-down” value (full-length Bcl-xL [2])?
Answer: Its value is “more tightly with wild-type BimL”.

Question: What about the binding (Bcl-xLΔC24) of the same molecule?
Answer: Its binding is “bound wild-type BimL and the L94A mutant equally”.
